These results are taken from patent US20260250331A1 (INTERNATIONAL AIDS VACCINE INITIATIVE, published 2026).

Usually Kd stands for the free concentration of one partner at which half of the binding sites on the other are occupied at equilibrium, for simple one-to-one binding. The low end stands for higher affinity, the high end for lower affinity. The term EC50 (read off the curve) denotes the concentration giving half of the maximal effect. A low value points to an effect from little substance.

For assay [1], the target named is N332-GT2 NP (ferritin) (HIV-1 BG505 Env fused to Helicobacter …). The experiment in a line: SPR; NP captured as ligand with PGT128 IgG, Fab flowed as analyte.
The target of assay [2] is BG505 MD39 N332-GT2 trimer (HIV-1 BG505). The experiment in a line: SPR, Fab and N332-GT2 trimer. Background: Surface plasmon resonance follows binding to a sensor surface in real time, without labels.
The target is the same in assay [3]. Nature of the assay: SPR.
The target is the same in assay [4]. Nature of the assay: SPR; reference 11mutB trimer.
In assay [5] the target is gp120-17mutE K137/M141/P325. Nature of the assay: SPR.
For assay [6], the target named is gp120-17mutE K137/P325. Nature of the assay: SPR.
Assay [7] concerns the target gp120-17mutE K137/R139/M141/P325. The experiment in a line: SPR.
Assay [8] concerns the target gp120-17mutE K137/H325. Nature of the assay: SPR.
For assay [9], the target named is gp120-17mutE. Nature of the assay: SPR.
Assay [10] deals with BG505 MD39 N332-GT2 trimer (HIV-1 BG505). The experiment in a line: SPR; KD scatter plot.
Assay [11] deals with BG505 MD39 trimer (HIV-1 BG505). The experiment in a line: ELISA on BG505-MD39, mAb titrated from about 0.001 to 50 µg/mL. In general terms: In an ELISA, binding on a coated surface is turned into a signal by an enzyme label.
Assay [12] has the same target. The experiment in a line: ELISA on BG505-MD39, BG18 as mAb titrated from about 0.001 to 50 µg/mL.

B1: BG18 iGL0 Fab (Fab, V domains shown)
VH: QVQLQESGPGLVKPSGTLSLTCAVSGGSISSSNWWSWVRQPPGKGLEWIGEIYHSGSTNYNPSLKSRVTISVDKSKNQFSLKLSSVTAADTAVYYCARNAITIFGVVIIGEYYYYGMDVWGQGTTVTVSS
VL: not shown
Take B1: the Kd was 3 nM in [1] and 4 nM in [2].

B2: BG18 iGL1 with alternate germline VL gene VL3-1 (antibody, V domains shown)
VH: QVQLQESGPGLVKPSGTLSLTCAVSGGSISSSNWWSWVRQPPGKGLEWIGEIYHSGSTNYNPSLKSRVTISVDKSKNQFSLKLSSVTAADTAVYYCARNAITIFGVVILGEYYYYGMDVWGQGTTVTVSS
VL: not shown
In the case of B2, in [3], the binding result was “binds”.

B3: BG18 iGL1 (antibody, V domains shown)
VH: QVQLQESGPGLVKPSGTLSLTCAVSGGSISSSNWWSWVRQPPGKGLEWIGEIYHSGSTNYNPSLKSRVTISVDKSKNQFSLKLSSVTAADTAVYYCARNAITIFGVVILGEYYYYGMDVWGQGTTVTVSS
VL: not shown
On to B3, for which the “fold improvement over 11mutB” value in assay [4] is around 130000 fold. Further, the Kd in assay [3] was 0.213 nM; in assay [5] it was 2.5 nM; in assay [6], 11 nM; in assay [7], 0.5 nM; in assay [8], 5.9 nM; in assay [9] it was around 14000 nM.

B4: BG18 iGL1 with alternate germline VL gene VL3-19 (antibody, V domains shown)
VH: QVQLQESGPGLVKPSGTLSLTCAVSGGSISSSNWWSWVRQPPGKGLEWIGEIYHSGSTNYNPSLKSRVTISVDKSKNQFSLKLSSVTAADTAVYYCARNAITIFGVVILGEYYYYGMDVWGQGTTVTVSS
VL: SSELTQDPAVSVALGQTVRITCQGDSLRSYYASWYQQKPGQAPVLVIYGKNNRPSGIPDRFSGSSSGNTASLTITGAQAEDEADYYCNSRDSSGNHWVFGGGTKLTVL
On to B4, for which the binding result in assay [3] is listed as “binds”.

B5: BG18 iGL1 with alternate germline VL gene VL2-8 (antibody, V domains shown)
VH: QVQLQESGPGLVKPSGTLSLTCAVSGGSISSSNWWSWVRQPPGKGLEWIGEIYHSGSTNYNPSLKSRVTISVDKSKNQFSLKLSSVTAADTAVYYCARNAITIFGVVILGEYYYYGMDVWGQGTTVTVSS
VL: QSALTQPPSASGSPGQSVTISCTGTSSDVGGYNYVSWYQQHPGKAPKLMIYEVSKRPSGVPDRFSGSKSGNTASLTVSGLQAEDEADYYCSSYAGSNNFWVFGGGTKLTVL
For the molecule B5, in assay [3], the binding result is given as “binds”.

B6: pre4 (antibody, V domains shown)
VH: QVQLQESGPGLVKPSGTLSLTCAVSGGSISSSNWWSWVRQPPGKGLEWIGEIYHSGSTNYNPSLKSRVTISVDKSKNQFSLKLSSVTAADTAVYYCARERDTIFGVVSLRVYYYYGMDVWGQGTTVTVSS
VL: not shown
As to B6, in assay [10], the binding result is “no binding (tested: 100 µM)”.

B7: BG18 iGL1 with alternate germline VL gene VL3-10 (antibody, V domains shown)
VH: QVQLQESGPGLVKPSGTLSLTCAVSGGSISSSNWWSWVRQPPGKGLEWIGEIYHSGSTNYNPSLKSRVTISVDKSKNQFSLKLSSVTAADTAVYYCARNAITIFGVVILGEYYYYGMDVWGQGTTVTVSS
VL: SYELTQPPSVSVSPGQTARITCSGDALPKKYAYWYQQKSGQAPVLVIYKDSKRPSGIPERFSGSSSGTMATLTISGAQVEDEDDYYCYSADYSGNHWVFGGGTKLTVL
Take B7: in assay [3], the binding result is “binds”.

B8: pre13 (antibody, V domains shown)
VH: QVQLQESGPGLVKPSGTLSLTCAVSGGSISSSNWWSWVRQPPGKGLEWIGEIYHSGSTNYNPSLKSRVTISVDKSKNQFSLKLSSVTAADTAVYYCAKALNTIFGVVTLTQYYYYGMDVWGQGTTVTVSS
VL: not shown
As to B8, the binding result in [10] is recorded as “no binding (tested: 100 µM)”.

B9: pre15 (antibody, V domains shown)
VH: QVQLQESGPGLVKPSGTLSLTCAVSGGSISSSNWWSWVRQPPGKGLEWIGEIYHSGSTNYNPSLKSRVTISVDKSKNQFSLKLSSVTAADTAVYYCARDIHNSFGVVSLDQNYYYGMDVWGQGTTVTVSS
VL: not shown
For the molecule B9, the binding result in [10] is given as “no binding (tested: 100 µM)”.

B10: pre14 (antibody, V domains shown)
VH: QVQLQESGPGLVKPSGTLSLTCAVSGGSISSSNWWSWVRQPPGKGLEWIGEIYHSGSTNYNPSLKSRVTISVDKSKNQFSLKLSSVTAADTAVYYCARGRITIFGVVTLRGYYYYGMDVWGQGTTVTVSS
VL: not shown
notes: also called NGS pre14; NGS Pre14
Turning to B10, the figures for the Kd in assay [1] and in [2] were 94 nM and 136 nM, respectively.

B11: BG18.6H BG18.11L (antibody, V domains shown)
VH: QVQLQESGPGLVKPSGTLSLTCAVSGDSRPSDHSWSWVRQPPGKGLEWIGEIYYSGSTNYNPSLKSRVTISVDKSKNQFSLKLSSVTAADTAVYYCARNAIRIYGVVALGEWFHYGMDVWGQGTTVTVSS
VL: SYELTQPPSVSVSPGQTARITCSGDALPSRYAYWYQQKPGQAPVLVISRDSQRSSGISGRFSGSWSGTTVTLTISGVQAEDEADYYCQSSDSSDTYKVFGGGTKLTVL
notes: also called less mutated variant of BG18
On to B11, for which, in assay [11], the “EC50 (read off the curve)” value is around 0.05 mg/L.

B12: BG18 Fab (Fab, V domains shown)
VH: QVQLRESGPGLVKPSETLSLSCTVSNDSRPSDHSWTWVRQSPGKALEWIGDIHYNGATTYNPSLRSRVRIELDQSIPRFSLKMTSMTAADTGMYYCARNAIRIYGVVALGEWFHYGMDVWGQGTAVTVSS
VL: SSELTQPPSVSVSPGQTARITCSGAPLTSRFTYWYRQKPGQAPVLIISRSSQRSSGWSGRFSASWSGTTVTLTIRGVQADDEADYYCQSSDTSDSYKMFGGGTKLTVL
notes: also called mature BG18; 354BG18
Regarding B12, in assay [12], the “EC50 (read off the curve)” value was around 0.02 mg/L.
